Reference: patent publication US11274129B2, “Methods for protein tyrosine phosphorylation profiling with variant SH2 domains” (priority 2016, dated 2022)

How the values were obtained:
[1] = tested on: mixture of 54 different pTyr-including peptides derived from 54 TK activation loops; test: Capture of pTyr-including peptides from a mixture of TK activation loop peptides, scheduled PRM; format: binding
Experimental: Equal molar amounts (10 nmole) of the wild-type (wt) human Src SH2 domain and the DM and TrM human Src SH2 Superbinders (SEQ ID NO: 14 and 5, respectively) expressed with His6 and GST tags were used to capture pTyr-including peptides from a mixture of 54 different pTyr-including peptides (10 pmole each) derived from 54 TK activation loops. The isolated peptides were identified by PRM and quantified based on the corresponding MS peak area. 1.8% of the eluted peptides were injected into a Q-Exactive (Thermo Fisher) preceded with a nano-LC system.
Shown are the amounts of pTyr-including peptides captured, based on the corresponding peak area of PRM signal, by each of the parent human Src SH2 domain and the DM and TrM human Src SH2 Superbinders.

[2] = biological target: VEGFR1-pTyr^1213 peptide DVRpYVNAAKF; conditions: peptide VEGFR1-pTyr^1213 DVRpYVNAAKF; read-out: equilibrium dissociation constant (Kd); cited from earlier work
[3] = biological target: EGFR-pTyr^978 peptide PQRpYLVIQGD; conditions: peptide EGFR-pTyr^978 PQRpYLVIQGD; read-out: equilibrium dissociation constant (Kd); cited from earlier work
[4] = biological target: EGFR-pTyr^1110 peptide NPVpYHNQPLN; conditions: peptide EGFR-pTyr^1110 NPVpYHNQPLN; read-out: equilibrium dissociation constant (Kd); cited from earlier work
[5] = biological target: MidT-pTyr^324 peptide EPQpYEEIPIYL; conditions: peptide MidT-pTyr^324 EPQpYEEIPIYL; read-out: equilibrium dissociation constant (Kd); cited from earlier work
[6] = biological target: RSKL-pTyr^423 peptide YQHpYDLDLKD; conditions: peptide RSKL-pTyr^423 YQHpYDLDLKD; read-out: equilibrium dissociation constant (Kd); cited from earlier work
[7] = biological target: ShcA-pTyr^239 peptide DHQpYYNDFPG; conditions: peptide ShcA-pTyr^239 DHQpYYNDFPG; read-out: equilibrium dissociation constant (Kd); cited from earlier work
[8] = biological target: ShcA-pTyr^317 peptide DPSpYVNVQNL; conditions: peptide ShcA-pTyr^317 DPSpYVNVQNL; read-out: equilibrium dissociation constant (Kd); cited from earlier work
Designed peptide GGpYGG = conditions: read-out: equilibrium dissociation constant (Kd); cited from earlier work

B1: Triple mutant: TrM human Src SH2 domain variant with Thr183Val, Cys188Ala and Lys206Leu; His6/GST-tagged form SEQ ID NO: 11 (protein)
chain: DSIQAEEWYFGKITRRESERLLLNAENPRGTFLVRESETVKGAYALSVSDFDNAKGLNVKHYLIRKLDSGGFYITSRTQFNSLQQLVAYYSKHADGLCHRLTTVCPTSK
modifications: SH2 protein domain; TrM human Src SH2 domain
number of the 54 pTyr-including peptides captured / detected by PRM ([1]; 10 nmole SH2 domain, 10 pmole each peptide): 54
PRM signal peak area ([1]; BLK (pTyr389) IIDSEpYTAQEGAK, fragment ion b2): 156,244
PRM signal peak area ([1]; BMX (pTyr566) YVLDDQpYVSSVGTK, fragment ion b2): 151,470
PRM signal peak area ([1]; BTK (pTyr551) YVLDDEpYTSSVGSK, fragment ion b2): 1,311,693
PRM signal peak area ([1]; DDR1 (pTyr796/797) NLYAGDpYpYR, fragment ion b2): 337,871
PRM signal peak area ([1]; DDR2 (pTyr740/741) NLYSGDpYpYR, fragment ion y6): 184,684
PRM signal peak area ([1]; EPHA1 (pTyr781) LLDDFDGTpYETQGGK, fragment ion y9): 188,365
PRM signal peak area ([1]; EPHA2 (pTyr772) VLEDDPEATpYTTSGGK, fragment ion y11): 347,030
PRM signal peak area ([1]; EPHA3 (pTyr779) VLEDDPEAApYTTR, fragment ion y8): 394,218
PRM signal peak area ([1]; EPHA6 (pTyr830) VLEDDPEAApYTTTGGK, fragment ion b2): 287,653
PRM signal peak area ([1]; EPHA8 (pTyr793) VLEDDPDAApYTTTGGK, fragment ion y11): 585,234
PRM signal peak area ([1]; EPHB1 (pTyr778) YLQDDTSDPTpYTSSLGGK, fragment ion y10): 205,974
PRM signal peak area ([1]; EPHB2 (pTyr780) FLEDDTSDPTpYTSALGGK, fragment ion Y3): 215,302
PRM signal peak area ([1]; EPHB3 (pTyr792) FLEDDPSDPTpYTSSLGGK, fragment ion y10): 260,454
PRM signal peak area ([1]; EPHB4 (pTyr774) FLEENSSDPTpYTSSLGGK, fragment ion y10): 134,156
PRM signal peak area ([1]; ERBB2 (pTyr877) LLDIDETEpYHADGGK, fragment ion b3): 42,655
PRM signal peak area ([1]; ERBB3 (pTyr866) QLLpYSEAK, fragment ion y2): 164,128
PRM signal peak area ([1]; FER (pTyr714) QEDGGVpYSSSGLK, fragment ion y7): 27,417
PRM signal peak area ([1]; FES (pTyr713) EEADGVpYAASGGLR, fragment ion y8): 25,101
PRM signal peak area ([1]; FGFR1 (pTyr653/654) DIHHIDpYpYK, fragment ion b6): 51,243
PRM signal peak area ([1]; FGFR2 (pTyr656/657) DINNIDpYpYK, fragment ion y4): 87,143
PRM signal peak area ([1]; FGFR3 (pTyr647/648) DVHNLDpYpYK, fragment ion b3): 258,435
PRM signal peak area ([1]; FGFR4 (pTyr642/643) GVHHIDpYpYK, fragment ion b3): 36,105
PRM signal peak area ([1]; FRK (pTyr387) VDNEDIpYESR, fragment ion y6): 290,546
PRM signal peak area ([1]; GSK3 (pTyr279/216) GEPNVSpYICSR, fragment ion y6): 48,337
PRM signal peak area ([1]; HCK (pTyr411) VIEDNEpYTAR, fragment ion b2): 383,521
PRM signal peak area ([1]; INSRR (pTyr1145/1146) DVYETDpYpYR, fragment ion y5): 20,796
PRM signal peak area ([1]; ITK (pTyr512) FVLDDQpYTSSTGTK, fragment ion y11): 403,125
PRM signal peak area ([1]; JAK1 (pTyr1034/1035) EpYpYTVK, fragment ion y2): 109,611
PRM signal peak area ([1]; JAK2 (pTyr221) IQDpYHILTR, fragment ion Y3): 85,513
PRM signal peak area ([1]; JAK3 (pTyr980/981) DpYpYVVR, fragment ion y2): 19,712
PRM signal peak area ([1]; KIT (pTyr823) NDSNpYVVK, fragment ion b2): 234,665
PRM signal peak area ([1]; LMTK2 (pTyr295) EDpYIETDDK, fragment ion b2): 20,896
PRM signal peak area ([1]; LMTK3 (pTyr296/297) EDpYpYLTPER, fragment ion y3): 375,974
PRM signal peak area ([1]; MERTK (pTyr753/754) IYSGDpYpYR, fragment ion b2): 26,483
PRM signal peak area ([1]; MET (pTyr1234/1235) EpYpYSVHNK, fragment ion y2): 111,218
PRM signal peak area ([1]; MUSK (pTyr755/756) NIYSADpYpYK, fragment ion y2): 178,086
PRM signal peak area ([1]; NTRK1 (pTyr680/681) DIYSTDpYpYR, fragment ion b2): 103,368
PRM signal peak area ([1]; NTRK2 (pTyr706/707) DVYSTDpYpYR, fragment ion y4): 114,762
PRM signal peak area ([1]; PGFRB (pTyr857) DSNpYISK, fragment ion y2): 398,271
PRM signal peak area ([1]; PTK7 (pTyr960/961) DVYNSEpYpYHFR, fragment ion b2): 8,863
PRM signal peak area ([1]; RET (pTyr905) DVYEEDSpYVK, fragment ion b2): 882,529
PRM signal peak area ([1]; RON (pTyr1238/1239) EpYpYSVQQHR, fragment ion y4): 44,290
PRM signal peak area ([1]; ROR1 (pTyr645/646) EIYSADpYpYR, fragment ion y6): 177,244
PRM signal peak area ([1]; ROR2 (pTyr645/646) EVYAADpYpYK, fragment ion y5): 334,295
PRM signal peak area ([1]; SRC (pTyr419) LIEDNEpYTAR, fragment ion b2): 99,515
PRM signal peak area ([1]; SRMS (pTyr380) DDIpYSPSSSSK, fragment ion y8): 478,598
PRM signal peak area ([1]; TEC (pTyr519) YVLDDQpYTSSSGAK, fragment ion b2): 781,110
PRM signal peak area ([1]; TIE1 (pTyr1007) GEEVpYVK, fragment ion b2): 409,242
PRM signal peak area ([1]; TIE2 (pTyr992) GQEVpYVK, fragment ion b2): 209,701
PRM signal peak area ([1]; TXK (pTyr420) YVLDDEpYVSSFGAK, fragment ion b2): 271,650
PRM signal peak area ([1]; TYK2 (pTyr1054/1055) AVPEGHEpYpYR, fragment ion y6): 53,473
PRM signal peak area ([1]; VGFR1 (pTyr1053) NPDpYVR, fragment ion y3): 158,244
PRM signal peak area ([1]; VGFR2 (pTyr1059) DPDpYVR, fragment ion Y3): 196,659
Kd [2]: 23 nM
Kd [3]: 7.7 nM
Kd [4]: 76 nM
Kd [5]: 3.8 nM
Kd [6]: 13 nM
Kd [7]: 3.8 nM
Kd [8]: 7.5 nM
Kd (Designed peptide GGpYGG): 510 nM
